Where a chain is given by its changes, count along the chain named.
T1: Peptide-13 (not fully specified)
T1 chain: CRPPGFSPFRK

T2: Peptide-3
T2 chain: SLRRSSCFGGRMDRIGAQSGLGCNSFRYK

T3: Peptide-5 (not fully specified)
T3 chain: CDRVYIHPFHLK

T4: Peptide-6a
T4 chain: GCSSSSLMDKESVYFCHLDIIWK

T5: Peptide-6b
T5 chain: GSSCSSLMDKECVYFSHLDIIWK

T6: Peptide-8 (not fully specified)
T6 chain: CQLYENKPRRPYILK

B1: C15 (protein)
chain: YPYDVPDYAYPYDVPDYAYPYDVPDYAGSYDDGICKSSDCIKSAARLIQNMDATTEPCTDFFKYACGGWLKRNVIPETSSRYGNFDILRDELEVVLKDVLQEPKTEDIVAVQKAKALYRSCINESAIDSRGGEPLLKLLPDIYGWPVATENWEQKYGASWTAEKAIAQLNSKYGKKVLINLFVGTDDKNSVNHVIHIDQPRLGLPSGDYYECTGIYKEACTAYVDFMISVARLIRQEERLPIDENQLALEMNKVMELEKEIANATAKPEDRNDPMLLYNKMTLAQIQNNFSLEINGKPFSWLNFTNEIMSTVNISITNEEDVVVYAPEYLTKLKPILTKYSARDLQNLMSWRFIMDLVSSLSRTYKESRNAFRKALYVTTSETATWRRCANYVNGNMMNAVGRLYVEAAFAGESKHVVEDLIAQIREVFIQTLDDLTWMDAETKKRAEEKALAIKERIGYPDDIVSNDNKLNNEYLELNYKEDEYFENIIQNLKFSQSKQLKKLREKVDKDEWISGAAVVNAFYSSGRNQIVFPAGILQPPFFSAQQSNSLNYGGIGMVIGHEITHGFMDNVRNFNKDDDLVDWWTQQSASNFKEQSQCMVYQYGNFSWDLAGGQHLNGINTLGENIADNGGLGQAYRAYQNYIKKNGEEKLLPGLDLNHKQLFFLNFAQVWCGTYRPEYAVNSIKTDVHSPKNFRIIGTLQNSAEFSEAFHCRKNSYMNPEKKCRVW
B2: C18 (protein)
chain: B1 chain with D579W
B3: C19 (protein)
chain: B1 chain with V572G, F575P, D579L
B4: C17 (protein)
chain: B1 chain with F575P, D579G
B5: C16 (protein)
chain: B1 chain with F575P, D579W

What follows are proteins tested against Peptide-1.
For B1, the kapp ratio vs G399V/G714K (B1) was 2.52 fold. Protein B2 has a kapp ratio vs G399V/G714K (B1) of 2.56 fold. In the case of B3, the kapp ratio vs G399V/G714K (B1) is reported as 2.33 fold. B4 was tested, and the kapp ratio vs G399V/G714K (B1) was 3.28 fold. Work on B5 yielded a kapp ratio vs G399V/G714K (B1) of 2.24 fold.

Target: T1, Peptide-13
For B1, the kapp ratio vs G399V/G714K (B1) was 0.44 fold. For B2, the kapp ratio vs G399V/G714K (B1) was 0.5 fold. With B3 the kapp ratio vs G399V/G714K (B1) was 0.33 fold. Protein B4 has a kapp ratio vs G399V/G714K (B1) of 0.49 fold. For B5, the kapp ratio vs G399V/G714K (B1) was 0.44 fold.

Each protein was assayed against Peptide-2.
Protein B1 has a kapp ratio vs G399V/G714K (B1) of 2.72 fold. B2 was tested, and the kapp ratio vs G399V/G714K (B1) was 2.29 fold. B3 was tested, and the kapp ratio vs G399V/G714K (B1) was 2.34 fold. In the case of B4, the kapp ratio vs G399V/G714K (B1) is reported as 3.13 fold. For B5, the kapp ratio vs G399V/G714K (B1) was 2.19 fold.

Target: T2, Peptide-3
B1 gave a kapp ratio vs G399V/G714K (B1) of 0.24 fold. B2 was tested, and the kapp ratio vs G399V/G714K (B1) was 0.24 fold. With B3 the kapp ratio vs G399V/G714K (B1) was 0.24 fold. With B4 the kapp ratio vs G399V/G714K (B1) was 0.24 fold. Protein B5 has a kapp ratio vs G399V/G714K (B1) of 0.24 fold.

These proteins were tested against Peptide-4.
For B1, the kapp ratio vs G399V/G714K (B1) was 0.7 fold. For B2, the kapp ratio vs G399V/G714K (B1) was 0.59 fold. B3 was tested, and the kapp ratio vs G399V/G714K (B1) was 0.67 fold. For B4, the kapp ratio vs G399V/G714K (B1) was 0.7 fold. With B5 the kapp ratio vs G399V/G714K (B1) was 0.7 fold.

Target: T3, Peptide-5
B1 showed a kapp ratio vs G399V/G714K (B1) of 0.25 fold. Work on B2 yielded a kapp ratio vs G399V/G714K (B1) of 0.16 fold. In the case of B3, the kapp ratio vs G399V/G714K (B1) is reported as 0.15 fold. B4 gave a kapp ratio vs G399V/G714K (B1) of 0.27 fold. B5 gave a kapp ratio vs G399V/G714K (B1) of 0.21 fold.

Target: T4, Peptide-6a
In the case of B1, the kapp ratio vs G399V/G714K (B1) is reported as 0.46 fold. B2 gave a kapp ratio vs G399V/G714K (B1) of 0.36 fold. Protein B3 has a kapp ratio vs G399V/G714K (B1) of 0.29 fold. B4 showed a kapp ratio vs G399V/G714K (B1) of 0.47 fold. With B5 the kapp ratio vs G399V/G714K (B1) was 0.35 fold.

Target: T5, Peptide-6b
Work on B1 yielded a kapp ratio vs G399V/G714K (B1) of 0.24 fold. With B2 the kapp ratio vs G399V/G714K (B1) was 0.26 fold. B3 was tested, and the kapp ratio vs G399V/G714K (B1) was 0.19 fold. For B4, the kapp ratio vs G399V/G714K (B1) was 0.33 fold. With B5 the kapp ratio vs G399V/G714K (B1) was 0.23 fold.

Each protein was assayed against Peptide-7.
With B1 the kapp ratio vs G399V/G714K (B1) was 0.75 fold. Protein B2 has a kapp ratio vs G399V/G714K (B1) of 0.67 fold. With B3 the kapp ratio vs G399V/G714K (B1) was 0.34 fold. Work on B4 yielded a kapp ratio vs G399V/G714K (B1) of 0.57 fold. B5 gave a kapp ratio vs G399V/G714K (B1) of 0.7 fold.

Target: T6, Peptide-8
With B1 the kapp ratio vs G399V/G714K (B1) was 0.52 fold. In the case of B2, the kapp ratio vs G399V/G714K (B1) is reported as 0.73 fold. With B3 the kapp ratio vs G399V/G714K (B1) was 0.29 fold. B4 showed a kapp ratio vs G399V/G714K (B1) of 0.33 fold. B5 gave a kapp ratio vs G399V/G714K (B1) of 0.4 fold.

Source: patent US20120237496
